Results: patent publication US20220204994A1

How the values were obtained:
[1] = tested on: B2M13-14.479 engineered meganuclease (Artificial); assay: cell_activity; details: MC3 LNP repeat dose day 0 and day 3, ApoE, measured day 7; 22.62% in the comparison without repeat dosing
[2] = biological target: CD19 on Raji cells (B cell lymphoma line, Burkitt's Lymphoma) (UniProt P15391); assay: cell-based or functional assay
Sequence of UniProt P15391 (P15391 20-556 limits assumed): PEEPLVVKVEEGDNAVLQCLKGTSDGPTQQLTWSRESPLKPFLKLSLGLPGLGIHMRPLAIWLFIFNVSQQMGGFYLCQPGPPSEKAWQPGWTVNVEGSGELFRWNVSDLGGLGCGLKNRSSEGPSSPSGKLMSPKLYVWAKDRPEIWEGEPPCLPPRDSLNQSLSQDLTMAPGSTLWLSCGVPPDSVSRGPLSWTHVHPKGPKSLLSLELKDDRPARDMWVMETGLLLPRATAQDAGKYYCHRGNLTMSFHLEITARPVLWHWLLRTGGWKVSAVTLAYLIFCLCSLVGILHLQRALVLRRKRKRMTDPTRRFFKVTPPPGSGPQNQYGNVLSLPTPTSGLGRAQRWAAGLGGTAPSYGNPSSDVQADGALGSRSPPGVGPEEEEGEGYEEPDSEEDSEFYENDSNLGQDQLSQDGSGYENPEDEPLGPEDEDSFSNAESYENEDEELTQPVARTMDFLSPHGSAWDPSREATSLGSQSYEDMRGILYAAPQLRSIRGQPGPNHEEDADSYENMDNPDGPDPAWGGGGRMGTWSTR

Substance | activity (% B2M knockout) [1] | killing of CD19+ Raji cells in 16 h co-culture (CAR T cells made with AAV added 0-24 hours after LNP) [2] [%] | killing of CD19+ Raji cells in 16 h co-culture (CAR T cells made with AAV added 24-48 hours after LNP) [2] [%]
B2M 13-14 recognition sequence (B2M gene) | 26.4 | – | –
anti-CD19 CAR (FMC63) expressed on human donor T cells after AAV6-7206 transduction | – | 99 | 94
